Test results taken from patent publication US20060263802A1 (CRUCELL HOLLAND B V, published 2006).

Assays:
Assay in all cases: PEPSCAN ELISA, looped 15-mer, 10 ug/ml
[1] = biological target: looped peptide … (rabies virus strain ERA)
[2] = biological target: looped peptide … (rabies virus strain ERA); remark: listed apart in the source
[3] = biological target: looped peptide … (rabies virus strain ERA); remark: listed apart in the source
[4] = biological target: looped peptide … (rabies virus strain ERA); remark: listed apart in the source
[5] = biological target: looped peptide … (rabies virus strain ERA); remark: listed apart in the source
[6] = biological target: looped peptide … (rabies virus strain ERA); remark: listed apart in the source
[7] = biological target: looped peptide … (rabies virus strain ERA); remark: listed apart in the source
[8] = biological target: looped peptide … (rabies virus strain ERA); remark: listed apart in the source
[9] = biological target: looped peptide … (rabies virus strain ERA); remark: listed apart in the source
[10] = biological target: looped peptide … (rabies virus strain ERA); remark: listed apart in the source
[11] = biological target: looped peptide … (rabies virus strain ERA); remark: listed apart in the source
[12] = biological target: looped peptide … (rabies virus strain ERA); remark: listed apart in the source
[13] = biological target: looped peptide … (rabies virus strain ERA); remark: listed apart in the source
[14] = biological target: looped peptide … (rabies virus strain ERA); remark: listed apart in the source
[15] = biological target: looped peptide … (rabies virus strain ERA); remark: listed apart in the source
[16] = biological target: looped peptide … (rabies virus strain ERA); remark: listed apart in the source
[17] = biological target: looped peptide … (rabies virus strain ERA); remark: listed apart in the source
[18] = biological target: looped peptide … (rabies virus strain ERA); remark: listed apart in the source
[19] = biological target: looped peptide … (rabies virus strain ERA); remark: listed apart in the source
[20] = biological target: looped peptide … (rabies virus strain ERA); remark: listed apart in the source
[21] = biological target: looped peptide … (rabies virus strain ERA); remark: listed apart in the source
[22] = biological target: looped peptide … (rabies virus strain ERA); remark: listed apart in the source
[23] = biological target: looped peptide … (rabies virus strain ERA); remark: listed apart in the source
[24] = biological target: looped peptide … (rabies virus strain ERA); remark: listed apart in the source
[25] = biological target: looped peptide … (rabies virus strain ERA); remark: listed apart in the source
[26] = biological target: looped peptide … (rabies virus strain ERA); remark: listed apart in the source
[27] = biological target: looped peptide … (rabies virus strain ERA); remark: listed apart in the source
[28] = biological target: looped peptide … (rabies virus strain ERA); remark: listed apart in the source
[29] = biological target: looped peptide … (rabies virus strain ERA); remark: listed apart in the source
[30] = biological target: looped peptide … (rabies virus strain ERA); remark: listed apart in the source
[31] = biological target: looped peptide … (rabies virus strain ERA); remark: listed apart in the source
[32] = biological target: looped peptide … (rabies virus strain ERA); remark: listed apart in the source
[33] = biological target: looped peptide … (rabies virus strain ERA); remark: listed apart in the source
[34] = biological target: looped peptide … (rabies virus strain ERA); remark: listed apart in the source
[35] = biological target: looped peptide … (rabies virus strain ERA); remark: listed apart in the source
[36] = biological target: looped peptide … (rabies virus strain ERA); remark: listed apart in the source
[37] = biological target: looped peptide … (rabies virus strain ERA); remark: listed apart in the source
[38] = biological target: looped peptide … (rabies virus strain ERA); remark: listed apart in the source
[39] = biological target: looped peptide … (rabies virus strain ERA); remark: listed apart in the source
[40] = biological target: looped peptide … (rabies virus strain ERA); remark: listed apart in the source
[41] = biological target: looped peptide … (rabies virus strain ERA); remark: listed apart in the source
[42] = biological target: looped peptide … (rabies virus strain ERA); remark: listed apart in the source
[43] = biological target: looped peptide … (rabies virus strain ERA); remark: listed apart in the source
[44] = biological target: looped peptide … (rabies virus strain ERA); remark: listed apart in the source
[45] = biological target: looped peptide … (rabies virus strain ERA); remark: listed apart in the source
[46] = biological target: looped peptide … (rabies virus strain ERA); remark: listed apart in the source
[47] = biological target: looped peptide … (rabies virus strain ERA); remark: listed apart in the source
[48] = biological target: looped peptide … (rabies virus strain ERA); remark: listed apart in the source
[49] = biological target: looped peptide … (rabies virus strain ERA); remark: listed apart in the source
[50] = biological target: looped peptide … (rabies virus strain ERA); remark: listed apart in the source
[51] = biological target: looped peptide … (rabies virus strain ERA); remark: listed apart in the source
[52] = biological target: looped peptide … (rabies virus strain ERA); remark: listed apart in the source
[53] = biological target: looped peptide … (rabies virus strain ERA); remark: listed apart in the source
[54] = biological target: looped peptide … (rabies virus strain ERA); remark: listed apart in the source
[55] = biological target: looped peptide … (rabies virus strain ERA); remark: listed apart in the source
[56] = biological target: looped peptide … (rabies virus strain ERA); remark: listed apart in the source
[57] = biological target: looped peptide … (rabies virus strain ERA); remark: listed apart in the source
[58] = biological target: looped peptide … (rabies virus strain ERA); remark: listed apart in the source
[59] = biological target: looped peptide … (rabies virus strain ERA); remark: listed apart in the source
[60] = biological target: looped peptide … (rabies virus strain ERA); remark: listed apart in the source
[61] = biological target: looped peptide … (rabies virus strain ERA); remark: listed apart in the source
[62] = biological target: looped peptide … (rabies virus strain ERA); remark: listed apart in the source
[63] = biological target: looped peptide … (rabies virus strain ERA); remark: listed apart in the source
[64] = biological target: looped peptide … (rabies virus strain ERA); remark: listed apart in the source
[65] = biological target: looped peptide … (rabies virus strain ERA); remark: listed apart in the source
[66] = biological target: looped peptide … (rabies virus strain ERA); remark: listed apart in the source
[67] = biological target: looped peptide … (rabies virus strain ERA); remark: listed apart in the source
[68] = biological target: looped peptide … (rabies virus strain ERA); remark: listed apart in the source

B1: human monoclonal antibody CRJB (antibody, V domains shown)
VH: QITLKETGPTLVKPTQTLTLTCTFSGFSLSTSGVGVGWIRQPPGKALEWVTLIYWDDDKRYSPSLENRVTIRKDTSKNQVALTMTNMDPLDTGTYYCAHRQHISSFPWFDSWGQGTLVTVSS
VL: SYVLTQPPSVSVAPGKTARINCGGNNIEYRSVHWYQQKSGQAPVAVIYDNSDRPSGIPERFSGSKSGNTATLTISRVEAGDEADYYCQVWDISSDVVFGGGTKLTVLG
B1 gave an OD value [1] of 105, an OD value [2] of 111 and an OD value [3] of 62. For the same binder, the OD value [4] was 106, the OD value [5] was 90 and the OD value [6] was 79. The OD value [7] was 105, the OD value [8] was 72 and the OD value [9] was 2. The OD value [10] was 104, the OD value [11] was 82 and the OD value [12] was 78. The OD value [13] was 79, the OD value [14] was 97 and the OD value [15] was 82. For the same binder, the OD value [16] was 127, the OD value [17] was 82 and the OD value [18] was 71. It also gave an OD value [19] of 106, an OD value [20] of 94 and an OD value [21] of 74. For the same binder, the OD value [22] was 83, the OD value [23] was 79 and the OD value [24] was 104. The OD value [25] was 97, the OD value [26] was 96 and the OD value [27] was 79. For the same binder, the OD value [28] was 76, the OD value [29] was 94 and the OD value [30] was 79. It also gave an OD value [31] of 89, an OD value [32] of 77 and an OD value [33] of 66. It also gave an OD value [34] of 90, an OD value [35] of 65 and an OD value [36] of 89. The OD value [37] was 68, the OD value [38] was 82 and the OD value [39] was 55. It also gave an OD value [40] of 80, an OD value [41] of 42 and an OD value [42] of 73. The OD value [43] was 83, the OD value [44] was 68 and the OD value [45] was 56. It also gave an OD value [46] of 83, an OD value [47] of 27 and an OD value [48] of 98. It also gave an OD value [49] of 88, an OD value [50] of 91 and an OD value [51] of 82. For the same binder, the OD value [52] was 123, the OD value [53] was 78 and the OD value [54] was 85. It also gave an OD value [55] of 23, an OD value [56] of 71 and an OD value [57] of 100. It also gave an OD value [58] of 96, an OD value [59] of 92 and an OD value [60] of 58. The OD value [61] was 112, the OD value [62] was 97 and the OD value [63] was 66. The OD value [64] was 74, the OD value [65] was 85 and the OD value [66] was 93. For the same binder, the OD value [67] was 123 and the OD value [68] was 76.
